US20110179505A1, “RODENT CANCER MODEL FOR HUMAN FGFR4 ARG388 POLYMORPHISM” (priority 2008, published 2011)
Entries after “also recorded” stand apart in the source; their conditions may differ.

Key:
[1] = system: FGFR4 Arg/Arg385 MEFs; test: Apoptosis assay in MEFs (propidium-iodide, FACS) after chemotherapeutic drugs; type: cell-based, mouse
Experimental: Transmigration of MEFs were analysed in Boyden Chambers (Schubert & Weiss, Germany). 1.5×10^4 cells were seeded in starving medium containing 0% FCS. Migration was performed to DMEM containing 4% FCS for 16 h. Afterwards cells were stained with crystal violet and migrated cells were analysed macroscopically. To perform an apoptosis assay 1.5×10^4cells in DMEM containing 10% FCS were seeded in 12-well plates. After 24 h cells were treated with 0.5 μM doxorubicin for 48 h. Afterwards cells were stained with propidium-iodide and apoptotic cells were determined in a FACS (FACScalibus, BD) analysis as previously described (27).
To support these observations by molecular analytical methods we determined whether the FGFR4 Arg385 allele is hyperactivated in MEFs and thereby enhances cell transformation. The expression of the different FGFR4 isoforms is equal in MEFs as well as its basic state of phosphorylation (FIG. 9A). Next, we wanted to check if FGFR4 Arg385 facilitates cell survival or influences physiological processes of MEFs. Therefore we analysed the number of population doublings until the cells enter senescence in vitro and additionally stained MEFs, subcultured for 30 days, for […] to visualize senescent cells. However, we found no obvious differences between the different FGFR4 alleles (FIG. 9B). […] Further we wanted to investigate the influence of the FGFR4 Arg385 allele on physiological processes. As a motility enhancing effect of is the FGFR4 Arg388 allele had already been shown by Bange and colleagues with a human mammary carcinoma cell line, we wanted to confirm this observation in MEFs, but as shown in FIG. 9C no difference observed when Gly/Gly—were compared to Arg/Arg-MEFs. Contrarily, Arg-carrying MEFs seemed to strongly support cell survival in response to DNA-damaging agents. […] Additionally, we investigated the anti-apoptotic impact of the FGFR4 Arg385 after treatment with other chemotherapeutic drugs.

[2] = target: T1, mouse FGFR4 Arg385 (knock-in allele) (mouse, UniProt Q03142 17-799); test: in vivo SILAC LC-MS/MS of FGFR4 immunoprecipitates from liver; FGFR4 Arg385 against the reference FGFR4 Gly385
T1 construct: Endogenous FGFR4 of FGFR4 Arg385 KI mice (liver lysates) and of MEFs derived from them
T1 sequence (Q03142 17-799 G385R/E673G limits assumed): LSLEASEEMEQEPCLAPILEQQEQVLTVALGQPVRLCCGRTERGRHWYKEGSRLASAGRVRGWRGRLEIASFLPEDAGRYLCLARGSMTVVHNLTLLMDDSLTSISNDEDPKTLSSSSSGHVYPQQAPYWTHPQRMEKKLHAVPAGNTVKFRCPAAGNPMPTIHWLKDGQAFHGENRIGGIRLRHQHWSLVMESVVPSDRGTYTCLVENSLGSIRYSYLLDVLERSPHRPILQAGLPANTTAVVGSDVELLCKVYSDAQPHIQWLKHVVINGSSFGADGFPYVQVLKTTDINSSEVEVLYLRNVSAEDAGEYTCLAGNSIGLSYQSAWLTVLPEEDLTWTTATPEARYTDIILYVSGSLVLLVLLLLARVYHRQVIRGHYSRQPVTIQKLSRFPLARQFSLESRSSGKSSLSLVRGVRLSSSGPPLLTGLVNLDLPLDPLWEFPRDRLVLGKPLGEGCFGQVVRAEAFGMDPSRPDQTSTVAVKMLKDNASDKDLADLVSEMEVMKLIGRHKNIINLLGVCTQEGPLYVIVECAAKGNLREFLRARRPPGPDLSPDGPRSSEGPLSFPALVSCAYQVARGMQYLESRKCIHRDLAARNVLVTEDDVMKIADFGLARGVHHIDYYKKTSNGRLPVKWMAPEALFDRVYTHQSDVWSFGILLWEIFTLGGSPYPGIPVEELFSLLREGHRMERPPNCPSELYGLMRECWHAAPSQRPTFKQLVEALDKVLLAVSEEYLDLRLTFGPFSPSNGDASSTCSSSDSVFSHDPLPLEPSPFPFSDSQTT

[3] = target: T1, mouse FGFR4 Arg385 (knock-in allele); test: in vivo SILAC LC-MS/MS of FGFR4 immunoprecipitates from liver, FGFR4 Arg385 mouse with the labelled SILAC mouse as internal standard
[4] = target: T2, mouse wild-type FGFR4 (FGFR4 Gly385) (mouse, UniProt Q03142 17-799); test: in vivo SILAC LC-MS/MS of FGFR4 immunoprecipitates from liver, labelled SILAC mouse against FGFR4 KO mouse
T2 construct: Endogenous hepatic FGFR4, immunoprecipitated from mouse liver lysates; also called hepatic FGFR4
T2 sequence (Q03142 17-799 E673G limits assumed): as the sequence (Q03142 17-799 G385R/E673G limits assumed) above, with R369G counted along it
Experimental: The hepatic FGFR4 of the unlabelled mouse was immunoprecipitated in the presence of the blocking peptides to detect unspecific binding partners. […] Unspecific interaction partners should display a 1:1 ratio compared to the unlabelled fraction incubated with the blocking peptides. […] For that reason, the investigation of hepatic FGFR4 interaction partners was done with the liver of FGFR4 KO mice (Yu et al., 2000).
Here, significance (PEP<0.03), amount of razor peptides (RPs, >1) and an upregulation of at least 3 fold in FGFR4 KO experiments identified potential FGFR4 interaction partner.

[5] = target: T2, mouse wild-type FGFR4 (FGFR4 Gly385); test: in vivo SILAC LC-MS/MS of FGFR4 immunoprecipitates from liver, FGFR4 Gly385 mouse with the labelled SILAC mouse as internal standard
[6] = target: human FGFR4 Arg388 (pLXSN-FGFR4 Arg388, overexpressed in MDA-MB-231 cells) (human) (UniProt P22455); test: SILAC LC-MS/MS of FGFR4 immunoprecipitates, MDA-MB-231 cells; FGFR4 Arg388 against the reference FGFR4 Gly388
human FGFR4 Arg388 (pLXSN-FGFR4 Arg388, overexpressed in MDA-MB-231 cells) (human), sequence (P22455 22-802 G388R): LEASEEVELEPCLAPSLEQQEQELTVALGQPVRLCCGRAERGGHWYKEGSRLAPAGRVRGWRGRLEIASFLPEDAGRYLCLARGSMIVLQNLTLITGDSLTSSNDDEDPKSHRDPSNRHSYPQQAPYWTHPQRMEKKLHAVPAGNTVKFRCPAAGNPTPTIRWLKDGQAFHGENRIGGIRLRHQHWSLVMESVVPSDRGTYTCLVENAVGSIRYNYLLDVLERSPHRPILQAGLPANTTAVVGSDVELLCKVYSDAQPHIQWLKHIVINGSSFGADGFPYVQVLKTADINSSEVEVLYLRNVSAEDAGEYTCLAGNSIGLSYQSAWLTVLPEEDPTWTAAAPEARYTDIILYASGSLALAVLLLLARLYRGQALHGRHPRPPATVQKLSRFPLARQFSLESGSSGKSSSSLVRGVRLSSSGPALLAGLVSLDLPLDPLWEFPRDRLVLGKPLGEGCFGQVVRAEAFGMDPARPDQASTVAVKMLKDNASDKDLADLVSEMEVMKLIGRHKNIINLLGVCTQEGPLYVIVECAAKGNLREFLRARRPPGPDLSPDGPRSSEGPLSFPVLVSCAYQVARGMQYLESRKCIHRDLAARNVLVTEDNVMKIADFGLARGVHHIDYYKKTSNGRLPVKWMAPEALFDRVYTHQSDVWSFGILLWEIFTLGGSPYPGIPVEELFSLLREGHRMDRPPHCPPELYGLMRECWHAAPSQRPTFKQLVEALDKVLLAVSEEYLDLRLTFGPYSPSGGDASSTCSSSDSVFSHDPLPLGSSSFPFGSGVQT

[7] = target: human FGFR4 Arg388 (pLXSN-FGFR4 Arg388, overexpressed in MDA-MB-231 cells) (human) (UniProt P22455); test: SILAC LC-MS/MS of FGFR4 immunoprecipitates, MDA-MB-231 cells overexpressing FGFR4 Arg388, normalized to empty pLXSN control cells
[8] = target: human FGFR4 Gly388 (pLXSN-FGFR4 Gly388, overexpressed in MDA-MB-231 cells) (human) (UniProt P22455); test: SILAC LC-MS/MS of FGFR4 immunoprecipitates, MDA-MB-231 cells overexpressing FGFR4 Gly388, normalized to empty pLXSN control cells
[9] = target: Epidermal Growth Factor Receptor (EGFR, SEQ ID NO: 77) (Homo sapiens (Human)) (UniProt P00533); test: cell-based or functional assay
[10] = system: FGFR4 Arg388 expressing MDA-MB-231 cells; test: Apoptosis in response to Gefitinib treatment; type: cell-based, human; settings: Gefitinib 20 μM (p=0.012) and 10 μM (p=0.0022); 96 hours
Experimental: In a preferred embodiment, the proliferation rate is determined via a MTT proliferation assay, the apoptosis is determined via FACS analysis (Nicoletti et al., 1991, J. Immunol. Methods, 139: 271-279), and/or the migration is determined with a Boyden Chamber Assay, e.g. as described in the Examples below.
To further analyze the physiological connection between the EGFR and the FGFR4 we investigated the differences between the different FGFR4 alleles in MDA-MB-231 overexpressing cells upon exposure to Gefitinib. […]. Therefore, physiological processes that require the dimerization of the EGFR and the FGFR4 should lead to different results in the presence of Gefitinib compared to those obtained without an EGFR inhibitor. […]. Therefore, we investigated the impact of FGFR4 Arg388 overexpression on apoptosis in response to Gefitinib treatment in MDA-MB-231 cells. […]; 10 μM-p=0.0022). […].

[11] = system: MDA-MB-231 cells overexpressing the FGFR4 Arg388 allele; type: cell-based, human; settings: FGFR4 Arg388 expressing cells; Gefitinib 0.025-20 μM
[12] = system: MDA-MB-231 cells expressing FGFR4 Gly388; type: cell-based, human; settings: up to 20 μM of Gefitinib
[13] = system: MDA-MB-231 cells expressing the empty pLXSN vector; test: MTT-proliferation assay with Gefitinib; type: cell-based, human; settings: up to 20 μM of Gefitinib
[14] = system: MDA-MB-231 cells expressing the FGFR4 Arg388 allele; type: cell-based, human; settings: FIG. 20C

human FGFR4 Gly388 (pLXSN-FGFR4 Gly388, overexpressed in MDA-MB-231 cells), sequence (P22455 22-802 limits assumed): as the sequence (P22455 22-802 G388R) above, with R367G counted along it
Ephrin type-A receptor 2, sequence (P29317 24-976 limits assumed): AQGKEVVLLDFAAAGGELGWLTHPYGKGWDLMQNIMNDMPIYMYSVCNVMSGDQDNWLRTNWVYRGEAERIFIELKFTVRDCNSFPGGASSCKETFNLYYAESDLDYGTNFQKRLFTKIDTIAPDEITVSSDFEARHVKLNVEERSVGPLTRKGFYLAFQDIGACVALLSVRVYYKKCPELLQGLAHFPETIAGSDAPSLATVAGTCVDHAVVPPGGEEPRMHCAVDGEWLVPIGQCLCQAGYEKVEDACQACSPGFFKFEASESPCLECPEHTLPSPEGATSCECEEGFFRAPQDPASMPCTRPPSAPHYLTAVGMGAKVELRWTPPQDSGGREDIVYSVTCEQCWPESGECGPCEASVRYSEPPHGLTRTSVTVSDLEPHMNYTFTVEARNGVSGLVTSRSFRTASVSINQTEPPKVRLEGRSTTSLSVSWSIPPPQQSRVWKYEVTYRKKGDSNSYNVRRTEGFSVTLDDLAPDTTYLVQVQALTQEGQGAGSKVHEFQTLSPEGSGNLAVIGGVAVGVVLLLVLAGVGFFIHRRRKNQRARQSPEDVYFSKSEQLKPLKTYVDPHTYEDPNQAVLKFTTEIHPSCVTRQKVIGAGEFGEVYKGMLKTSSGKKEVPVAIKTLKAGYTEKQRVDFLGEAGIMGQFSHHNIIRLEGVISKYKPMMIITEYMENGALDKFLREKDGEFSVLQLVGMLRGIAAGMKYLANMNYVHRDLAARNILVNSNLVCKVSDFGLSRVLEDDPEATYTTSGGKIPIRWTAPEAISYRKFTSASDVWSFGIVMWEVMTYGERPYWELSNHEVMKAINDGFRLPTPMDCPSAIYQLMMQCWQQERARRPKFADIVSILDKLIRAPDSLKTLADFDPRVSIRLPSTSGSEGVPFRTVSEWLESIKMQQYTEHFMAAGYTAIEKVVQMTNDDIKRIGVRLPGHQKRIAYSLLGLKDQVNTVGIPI

Row | ratio FGFR4 Arg385/Gly385 [2] | ratio FGFR4 Arg385 (n = 2) [3] | ratio FGFR4 KO (n = 2) [4] | ratio FGFR4 Gly385 (n = 1) [5] | Molecule | further results
1 | – | – | – | – | COc1cccc2c1C(=O)c1c(O)c3c(c(O)c1C2=O)C[C@@](O)(C(=O)CO)C[C@@H]3O[C@H]1C[C@H](N)[C@H](O)[C@H](C)O1 [doxorubicin] | apoptotic cells in Arg/Arg385 MEFs compared to Gly/Gly385 MEFs ([1]; 0.5 μM doxorubicin, 48 h, p=0.03): decreased percentage of apoptotic cells; also recorded: reduced number of apoptotic cells
2 | 27.8 | 1.6 | 19.7 fold | 0.1 | Hydroxyacid oxidase 1 (from UniProt Q9WU19 1-370) (enzyme) | –
3 | – | – | – | – | N.N.[Cl][Pt][Cl] [cisplatin] | apoptotic cells in Arg385 carrying MEFs compared to Gly/Gly385 MEFs ([1]; 3 μM cisplatin, 48 hrs, p=0.03): decreased apoptosis; also recorded: reduced number of apoptotic cells
4 | – | – | – | – | Protein tyrosine phosphatase, receptor type, F (from UniProt P10586 30-1907) | ratio FGFR4Arg388/Gly388 (n = 2) [6]: 1.06 fold; ratio FGFR4Arg388 (n = 2) [7]: 14.3 fold; ratio FGFR4Gly388 (n = 2) [8]: 16.6 fold
5 | – | – | – | – | human FGFR4 Arg388 (pLXSN-FGFR4 Arg388, overexpressed in MDA-MB-231 cells) (from UniProt P22455 22-802) (receptor) | IC50 of Gefitinib, MTT-proliferation assay of MDA-MB-231 cells overexpressing the FGFR4 Arg388 allele [9]: 9.53 µM; inhibition of migration by Gefitinib (2.5 µM), Boyden Chamber Assay, 15 hours, against DMSO treated control cells [9]: 22.3%
6 | 18.6 | 3.6 | 7.8 fold | 0.2 | Propanoyl-CoA C-acyltransferase (from UniProt P32020 1-547) (enzyme) | –
7 | 3.8 | 1.3 | 5.8 fold | 0.3 | Epidermal growth factor receptor (mouse liver, Egfr) (from UniProt Q01279 25-1210) | –
8 | 1 | 1.8 | 3.3 fold | 1.8 | Hydroxymethylglutaryl-CoA synthase (from UniProt P54869 38-508) (enzyme) | –
9 | 2.7 | 1 | 3.5 fold | 0.4 | Formimidoyltransferase-cyclodeaminase (from UniProt Q91XD4 1-541) (enzyme) | –
10 | – | – | – | – | Ephrin type-A receptor 2 (from UniProt P29317 24-976) | ratio FGFR4Arg388/Gly388 (n = 2) [6]: 1.05 fold; ratio FGFR4Arg388 (n = 2) [7]: 8.74 fold; ratio FGFR4Gly388 (n = 2) [8]: 7.97 fold
11 | – | – | – | – | CC(=O)O[C@H]1C(=O)[C@@]2(C)[C@H]([C@H](OC(=O)c3ccccc3)[C@]3(O)C[C@H](OC(=O)[C@H](O)[C@@H](NC(=O)c4ccccc4)c4ccccc4)C(C)=C1C3(C)C)[C@]1(OC(C)=O)CO[C@@H]1C[C@@H]2O [taxol] | apoptotic response in Gly/Gly385 MEFs compared to Arg/Arg385 MEFs ([1]; taxol, 48 hrs): no differences in apoptotic response
12 | – | – | – | – | human FGFR4 Gly388 (pLXSN-FGFR4 Gly388, overexpressed in MDA-MB-231 cells) (from UniProt P22455 22-802) (receptor) | IC50 of Gefitinib, MTT-proliferation assay of MDA-MB-231 cells expressing FGFR4 Gly388 (same value for empty pLXSN) [9]: 18.7 µM; inhibition of migration by Gefitinib (2.5 µM), Boyden Chamber Assay, 15 hours, against DMSO treated control cells [9]: 6.28%
13 | – | – | – | – | COc1cc2ncnc(Nc3ccc(F)c(Cl)c3)c2cc1OCCCN1CCOCC1 [Gefitinib] | apoptotic response in FGFR4 Arg388 cells compared to FGFR4 Gly388 cells [10]: significantly increased apoptotic response; also recorded: significant increase in apoptosis; response in MTT-proliferation assay [11]: typical dose response curve; response in MTT-proliferation assay [12]: no response; response in MTT-proliferation assay [13]: no response; migration in FGFR4 Arg388 cells compared to FGFR4 Gly388 cells in response to Gefitinib [14]: decrease in migration
14 | 0.7 ratio | 2.4 ratio | 28.2 fold | 3.2 ratio | Beta-klotho (receptor, mouse, UniProt Q99N32 1-1043, looked up, Endogenous protein co-immunoprecipitated with hepatic FGFR4; also called βKlotho) MKTGCAAGSPGNEWIFFSSDERNTRSRKTMSNRALQRSAVLSAFVLLRAVTGFSGDGKAIWDKKQYVSPVNPSQLFLYDTFPKNFSWGVGTGAFQVEGSWKTDGRGPSIWDRYVYSHLRGVNGTDRSTDSYIFLEKDLLALDFLGVSFYQFSISWPRLFPNGTVAAVNAQGLRYYRALLDSLVLRNIEPIVTLYHWDLPLTLQEEYGGWKNATMIDLFNDYATYCFQTFGDRVKYWITIHNPYLVAWHGFGTGMHAPGEKGNLTAVYTVGHNLIKAHSKVWHNYDKNFRPHQKGWLSITLGSHWIEPNRTDNMEDVINCQHSMSSVLGWFANPIHGDGDYPEFMKTGAMIPEFSEAEKEEVRGTADFFAFSFGPNNFRPSNTVVKMGQNVSLNLRQVLNWIKLEYDDPQILISENGWFTDSYIKTEDTTAIYMMKNFLNQVLQAIKFDEIRVFGYTAWTLLDGFEWQDAYTTRRGLFYVDFNSEQKERKPKSSAHYYKQIIQDNGFPLKESTPDMKGRFPCDFSWGVTESVLKPEFTVSSPQFTDPHLYVWNVTGNRLLYRVEGVRLKTRPSQCTDYVSIKKRVEMLAKMKVTHYQFALDWTSILPTGNLSKVNRQVLRYYRCVVSEGLKLGVFPMVTLYHPTHSHLGLPLPLLSSGGWLNMNTAKAFQDYAELCFRELGDLVKLWITINEPNRLSDMYNRTSNDTYRAAHNLMIAHAQVWHLYDRQYRPVQHGAVSLSLHCDWAEPANPFVDSHWKAAERFLQFEIAWFADPLFKTGDYPSVMKEYIASKNQRGLSSSVLPRFTAKESRLVKGTVDFYALNHFTTRFVIHKQLNTNRSVADRDVQFLQDITRLSSPSRLAVTPWGVRKLLAWIRRNYRDRDIYITANGIDDLALEDDQIRKYYLEKYVQEALKAYLIDKVKIKGYYAFKLTEEKSKPRFGFFTSDFRAKSSVQFYSKLISSSGLPAENRSPACGQPAEDTDCTICSFLVEKKPLIFFGCCFISTLAVLLSITVFHHQKRRKFQKARNLQNIPLKKGHSRVFS | –
